Test results reported in US20090136998A1 (Stanford University, published 2009).

Target: T1, human VEGFR-2 expressed on porcine aortic endothelial cells (PAE/VEGFR-2) (human, UniProt P35968 20-1356)
T1 construct: whole, on cells; also called KDR; PAE/KDR cells
Assay: competitive bioluminescence ELISA on PAE/VEGFR-2 cells; cold VEGF 121 varied against RL8-VEGF
Procedure: FIG. 10A illustrates coomassie Blue staining of purified fusion proteins and control proteins. […] FIG. 10B illustrates a Western Blot of purified proteins. […] FIG. 10C illustrates competitive bioluminescence ELISA on PAE/VEGFR-2 overexpressing cells.
Cells were washed and incubated with 0.5 μg of coelenterazine substrate and immediately imaged in the Xenogen IVIS 100 optical cooled charge-coupled device (CCD) (Xenogen, Alameda, Calif.). Regions of interest (ROIs) were drawn over the cell area and quantified in average photons/second/centimeter²/steradian (photons/s/cm²/sr) by using […] version 2.50 (Xenogen, Alameda, Calif.).

T1 sequence (P35968 20-1356): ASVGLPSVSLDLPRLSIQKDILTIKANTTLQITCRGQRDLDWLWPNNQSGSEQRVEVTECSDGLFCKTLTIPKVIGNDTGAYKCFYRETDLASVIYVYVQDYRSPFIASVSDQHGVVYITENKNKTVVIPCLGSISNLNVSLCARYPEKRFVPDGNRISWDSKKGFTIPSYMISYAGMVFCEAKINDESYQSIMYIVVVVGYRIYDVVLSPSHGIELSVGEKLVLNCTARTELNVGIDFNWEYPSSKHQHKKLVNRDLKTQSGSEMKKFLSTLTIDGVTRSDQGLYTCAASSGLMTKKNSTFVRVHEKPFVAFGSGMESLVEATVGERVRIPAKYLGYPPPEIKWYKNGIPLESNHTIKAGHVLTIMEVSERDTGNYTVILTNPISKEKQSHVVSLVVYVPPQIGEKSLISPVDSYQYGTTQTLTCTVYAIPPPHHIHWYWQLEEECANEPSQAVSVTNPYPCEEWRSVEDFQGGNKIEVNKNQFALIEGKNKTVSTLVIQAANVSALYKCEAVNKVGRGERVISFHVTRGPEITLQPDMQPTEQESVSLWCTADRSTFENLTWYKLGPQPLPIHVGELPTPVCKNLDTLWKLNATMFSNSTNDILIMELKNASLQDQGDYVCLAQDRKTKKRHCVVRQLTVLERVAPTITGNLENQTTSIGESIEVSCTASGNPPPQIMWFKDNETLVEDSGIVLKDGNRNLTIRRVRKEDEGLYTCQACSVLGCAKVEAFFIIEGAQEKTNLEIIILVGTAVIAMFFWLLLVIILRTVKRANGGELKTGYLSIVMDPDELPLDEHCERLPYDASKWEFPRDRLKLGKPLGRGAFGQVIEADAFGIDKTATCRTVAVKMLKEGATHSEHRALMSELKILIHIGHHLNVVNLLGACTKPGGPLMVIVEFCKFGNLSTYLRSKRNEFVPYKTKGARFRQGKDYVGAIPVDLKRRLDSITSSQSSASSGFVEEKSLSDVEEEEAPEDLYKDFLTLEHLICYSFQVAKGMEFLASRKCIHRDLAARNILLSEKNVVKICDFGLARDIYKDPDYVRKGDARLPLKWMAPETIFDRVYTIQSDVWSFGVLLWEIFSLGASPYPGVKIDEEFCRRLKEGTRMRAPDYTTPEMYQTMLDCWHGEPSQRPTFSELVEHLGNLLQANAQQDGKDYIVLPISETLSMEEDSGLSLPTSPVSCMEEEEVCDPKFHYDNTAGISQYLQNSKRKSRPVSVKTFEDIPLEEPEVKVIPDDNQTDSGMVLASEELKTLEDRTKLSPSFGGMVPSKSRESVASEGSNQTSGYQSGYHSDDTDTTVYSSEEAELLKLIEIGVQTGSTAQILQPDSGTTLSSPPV

B1: recombinant human VEGF 121 (PeproTech) (ligand, UniProt P15692-9 27-147, looked up)
chain: APMAEGGGQNHHEVVKFMDVYQRSYCHPIETLVDIFQEYPDEIEYIFKPSCVPLMRCGGCCNDEGLECVPTEESNITMQIMRIKPHQGQHIGEMSFLQHNKCECRPKKDRARQEKCDKPRR
IC50: 0.045 µg/mL
